Experimental data taken from paper PMC11025564 (The journal of physical chemistry. B, 2018).
Positions count from the first letter of the chain named. Numbers in names are those of the source.

T1: integrin β3(P685-F727) TM peptide C687S W715F (human, UniProt P05106 711-753, C687S | W715F)
T1 chain (looked up): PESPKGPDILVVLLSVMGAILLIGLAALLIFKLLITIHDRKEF

T2: integrin β3(P685-F727) TM peptide C687S W715I (human, UniProt P05106 711-753, C687S | W715I)
T2 chain (looked up): T1 chain (looked up) with F31I

T3: integrin β3(P685-F727) TM peptide C687S W715A (human, UniProt P05106 711-753, C687S | W715A)
T3 chain (looked up): T1 chain (looked up) with F31A

T4: human integrin β3(P685-F727) TM peptide incorporating β3(C687S) (human, UniProt P05106 711-753, C687S)
T4 chain (looked up): T1 chain (looked up) with F31W

T5: integrin β3(P685-F727) TM peptide C687S W715H (human, UniProt P05106 711-753, C687S | W715H)
T5 chain (looked up): T1 chain (looked up) with F31H

T6: integrin β3(P685-F727) TM peptide C687S W715Y (human, UniProt P05106 711-753, C687S | W715Y)
T6 chain (looked up): T1 chain (looked up) with F31Y

B1: human integrin αIIb(A958-P998) TM peptide (peptide)
chain: not shown
B2: integrin αIIb(A958-P998) TM peptide W967Y/W968V (peptide, UniProt P08514 989-1029, looked up)
chain: ALEERAIPIYVVLVGVLGGLLLLTILVLAMWKVGFFKRNRP
B3: integrin αIIb(A958-P998) TM peptide W988Y (peptide, UniProt P08514 989-1029, looked up)
chain: B2 chain with Y10W, V11W, W31Y
B4: integrin αIIb(A958-P998) TM peptide W988V (peptide, UniProt P08514 989-1029, looked up)
chain: B2 chain with Y10W, V11W, W31V
B5: integrin αIIb(A958-P998) TM peptide W967H (peptide)
chain: not shown
B6: integrin αIIb(A958-P998) TM peptide W967H/W968V (peptide, UniProt P08514 989-1029, looked up)
chain: B2 chain with Y10H
B7: integrin αIIb(A958-P998) TM peptide W988H (peptide, UniProt P08514 989-1029, looked up)
chain: B2 chain with Y10W, V11W, W31H
B8: integrin αIIb(A958-P998) TM peptide W988F (peptide, UniProt P08514 989-1029, looked up)
chain: B2 chain with Y10W, V11W, W31F
B9: integrin αIIb(A958-P998) TM peptide W967Y (peptide)
chain: not shown
B10: integrin αIIb(A958-P998) TM peptide W967V/W968V (peptide, UniProt P08514 989-1029, looked up)
chain: B2 chain with Y10V
B11: integrin αIIb(A958-P998) TM peptide W967F (peptide)
chain: not shown
B12: integrin αIIb(A958-P998) TM peptide W988H/W967V (peptide, UniProt P08514 989-1029, looked up)
chain: B2 chain with Y10V, V11W, W31H
B13: integrin αIIb(A958-P998) TM peptide W967A/W968V (peptide, UniProt P08514 989-1029, looked up)
chain: B2 chain with Y10A
B14: integrin αIIb(A958-P998) TM peptide W967F/W968V (peptide, UniProt P08514 989-1029, looked up)
chain: B2 chain with Y10F
B15: integrin αIIb(A958-P998) TM peptide W968V (peptide, UniProt P08514 989-1029, looked up)
chain: B2 chain with Y10W
B16: integrin αIIb(A958-P998) TM peptide W967V/W968V/W988H (peptide, UniProt P08514 989-1029, looked up)
chain: B2 chain with Y10V, W31H
B17: integrin αIIb(A958-P998) TM peptide W988A (peptide, UniProt P08514 989-1029, looked up)
chain: B2 chain with Y10W, V11W, W31A
B18: integrin αIIb(A958-P998) TM peptide W967V (peptide)
chain: not shown

Key:
[1] = biological target: T1, integrin β3(P685-F727) TM peptide C687S …; assay: ITC
[2] = biological target: T2, integrin β3(P685-F727) TM peptide C687S …; assay: ITC
[3] = biological target: T3, integrin β3(P685-F727) TM peptide C687S …; assay: ITC
[4] = biological target: T4, human integrin β3(P685-F727) TM peptide …; assay: ITC
[5] = biological target: T5, integrin β3(P685-F727) TM peptide C687S …; assay: ITC
[6] = biological target: T6, integrin β3(P685-F727) TM peptide C687S …; assay: ITC
[7] = biological target: T2, integrin β3(P685-F727) TM peptide C687S …; assay: intrinsic tryptophan fluorescence emission
[8] = biological target: T4, human integrin β3(P685-F727) TM peptide …; assay: intrinsic tryptophan fluorescence emission

Binder | KXY (association equilibrium constant on the mole fraction scale) [4] | dH [4] | further results
B1 | 3250 ± 60 | -16 ± 0.1 kcal/mol | KXY (association equilibrium constant on the mole fraction scale) [1]: 2230 ± 50; dH [1]: -17.2 ± 0.2 kcal/mol; KXY (association equilibrium constant on the mole fraction scale) [2]: 2600 ± 70; dH [2]: -9.6 ± 0.1 kcal/mol; KXY (association equilibrium constant on the mole fraction scale) [3]: 1300 ± 40; dH [3]: -15.5 ± 0.3 kcal/mol; KXY (association equilibrium constant on the mole fraction scale) [5]: 820 ± 40; dH [5]: -8.7 ± 0.2 kcal/mol; KXY (association equilibrium constant on the mole fraction scale) [6]: 1320 ± 40; dH [6]: -14.2 ± 0.2 kcal/mol
B2 | 9800 ± 400 | -14 ± 0.2 kcal/mol | –
B3 | 2320 ± 50 | -19.2 ± 0.2 kcal/mol | –
B4 | 2900 ± 100 | -13.7 ± 0.2 kcal/mol | –
B5 | 2530 ± 50 | -15.4 ± 0.1 kcal/mol | –
B6 | 7000 ± 200 | -14.9 ± 0.2 kcal/mol | –
B7 | 3540 ± 40 | -16.4 ± 0.1 kcal/mol | –
B8 | 1000 ± 20 | -16.4 ± 0.2 kcal/mol | –
B9 | 4700 ± 100 | -13.7 ± 0.2 kcal/mol | –
B10 | 2680 ± 60 | -17.8 ± 0.2 kcal/mol | –
B11 | 4030 ± 90 | -12.6 ± 0.1 kcal/mol | –
B12 | – | – | binding result [7]: binds
B13 | 6400 ± 200 | -18.4 ± 0.2 kcal/mol | –
B14 | 6500 ± 200 | -15.7 ± 0.2 kcal/mol | –
B15 | 13200 ± 600 | -14.3 ± 0.2 kcal/mol | –
B16 | – | – | binding result [8]: binds
B17 | 3320 ± 70 | -17.3 ± 0.1 kcal/mol | –
B18 | 4450 ± 80 | -13.1 ± 0.1 kcal/mol | –
